# Measurements as given in patent US8394929B2, “Nogo receptor-mediated blockade of axonal growth” (Yale University, priority 2000, dated 2013).
# What was measured:
# 3T3 fibroblasts = assay: 3T3 fibroblast spreading; format: cell-based, mouse; settings: substrate-bound / coated surfaces
# Procedure: (a) is a schematic diagram which summarizes features of the Nogo proteins utilized in this study. (b) is a photograph of NIH-3T3 fibroblasts cultured on surfaces coated with Amino-Nogo, GST-Nogo-66 or no protein and stained for filamentous actin (scale bar, 40 μm). (c) is a photograph of chick E12 dorsal root ganglions cultured on surfaces coated with Amino-Nogo, GST-Nogo-66 or no protein (substrate-bound) or with 100 nM Nogo protein (soluble) (scale bar, 40 μm). (d) is a photograph of a gel and an immunoblot where purified Amino-Nogo-Myc-His protein was subjected to SDS-PAGE and stained with Commassie Brilliant Blue (CBB) or immunoblotted with anti-Myc antibodies (Myc) (molecular weight markers of 200, 116, 97, 65 & 45 kDa are at left). (e) is a graph displaying experimental data where the percentage of 3T3 fibroblasts with an area greater than 1200 μm^2 (spread) was measured from experiments as in (b) on Nogo-coated surfaces (black) or with soluble 100 nM Nogo preparations (blue) (AM, Amino-Nogo; AM+Myc, Amino-Nogo preincubated with anti-Myc antibody; AM+Myc+Mo, AM+Myc preincubated with anti-mouse IgG antibody; Myc+Mo, anti-Myc antibody plus anti-murine IgG antibody). (f) is a graph displaying experimental data where the percentage of spread COS-7 cells was determined after culture on Nogo-coated surfaces or with soluble 100 nM Nogo preparations. (g) is a graph displaying experimental data where the effects of purified preparations of GST-Nogo-66 or Amino-Nogo on growth cone morphology was assessed in E12 dorsal root ganglion cultures at the indicated concentrations after thirty minutes. […] (h) is a graph displaying experimental data where the neurite outgrowth per cell in […] dorsal root ganglion cultures was quantitated from experiments as in (c) on Nogo-coated surfaces or with soluble 100 nM Nogo preparations. (i) is a graph displaying experimental data where the effects of Nogo preparations on neurite outgrowth in cerebellar granule neurons was measured.
# Assays of Nogo-A function have included growth cone collapse, neurite outgrowth, and fibroblast spreading with substrate-bound and soluble protein preparations (Caroni & Schwab, (1988) J. Cell Biol. 106, 1281-1288; GrandPré et al., (2000) Nature 403, 439-444; Chen et al., (2000) Nature 403, 434-439; Prinjha et al., (2000) Nature 403, 483-484). […] Since NI250 preparations and full length Nogo-A are non-permissive for 3T3 spreading, it was necessary to consider whether different domains of Nogo might subserve this in vitro activity. To facilitate a comparison of different Nogo-A domains, the acidic amino terminal 1040 amino acid fragment (Amino-Nogo) was expressed as a Myc-his tagged protein in HEK293T cells (FIG. 1d). The Nogo protein is present in cytosolic fractions. […]
# [1] = tested on: dorsal root ganglion neurons; assay: Cell survival in GST-Nogo-treated DRG cultures; format: cell-based, chick
# From the text: The nanomolar potency is on a par with most known physiologic regulators of axon guidance.
# [2] = tested on: NGF-differentiated PC12 cells; assay: Axon outgrowth from NGF-differentiated PC12 cells; format: cell-based
# Procedure: For all experiments involving cell culture, the following methods were employed. The culture of embryonic chick E10 and E12 dorsal root ganglion explants and dissociated neurons utilized methods described for E7 dorsal root ganglion cultures (Takahashi et al., (1998) Nature Neurosci. 1, 487-493; Takahashi et al., (1999) Cell 99, 59-69; Goshima et al., (1995) Nature 376, 509-514; Jin & Strittmatter, (1997) J. Neurosci. 7, 6256-6263). NGF-differentiated PC12 cells were cultured as described (Strittmatter et al., (1994) J. Neurosci. 14, 2327-2338). Embryonic spinal cord explants (rat E10 or chick E5) were cultured for 7-14 days in the presence of PDGF-AA to induce differentiation of some cells into mature oligodendrocytes (Vartanian et al., (1999) Proc. Natl. Acad. Sci. USA 96, 731-735). The procedure for growth cone collapse assays is identical to that for analysis of Sema3A-induced growth cone collapse (Takahashi et al., (1998) Nature Neurosci. 1, 487-493; Takahashi et al., (1999) Cell 99, 59-69; Goshima et al., (1995) Nature 376, 509-514; Jin & Strittmatter, (1997) J. Neurosci. 17, 6256-6263). The method for analysis of total neurite outgrowth has also been described (Goshima et al., (1995) Nature 376, 509-514; Jin & Strittmatter, (1997) J. Neurosci. 17, 6256-6263; Strittmatter et al., (1994) J. Neurosci. 14, 2327-2338). […]
# PlexinA1 (PlexA1) = assay: Growth cone collapse in E7 retinal ganglion cells infected with control HSV PlexinA1; format: cell-based
# From the text: Both dorsal root ganglion and retinal neurons from E7 chick embryos were examined. The Nogo responses in the dorsal root ganglion neurons from this developmental stage are weak but slight responses can be detected in some cultures (data not shown).
# Growth cone collapse in response to GST-hNogo-A (1055-1120) was investigated in infected RGC cultures. Retinal explants infected with recombinant viral preparations of PlexinA1 (PlexA1), wild-type NgR (wtNgR), NgRL1 chimeric receptor in which the GPI domain has been replaced by the transmembrane region and cytoplasmic tail from the mouse adhesion protein L1 (NgRL1), or NgR carboxy terminal deletion mutant (NgRΔCT) for 12 hr. Following infection, the cells were treated for 30 min with 0, 50, 250, or 500 nM GST-hNogo-A (1055-1120) (GrandPre et al., Nature 403: 439-444, 2000), fixed with 4% paraformaldehyde with 0.1 M PO4 and 20% sucrose, and stained with phalloidin. […] Cells infected with NgRΔCT were insensitive to GST-hNogo-A (1055-1120). The CT region of NgR is therefore required for effective NgR inhibitory signaling.
molecule,measurement,setting,value
"GST-Nogo: GST fusion protein of the 66 amino acid lumenal-extracellular fragment of Nogo-A, expressed in E. coli (protein, also: GST fusion protein, GST fusion protein of the 66 amino acid lumenal-extracellular fragment of Nogo-A, expressed in E. coli) RIYKGVIQAIQKSDEGHPFRAYLESEVAISEELVQKYSNSALGHVNCTIKELRRLFLVDDLVDSLK",3T3 fibroblast spreading (in words),3T3 fibroblasts,does not inhibit spreading
same,number of neurofilament-positive adherent cells,[1],137±24 % of GST-treated cultures
same,apoptotic nuclei identified by DAPI staining,[1]; GST-Nogo-treated specimens,5.2±1.1%
same,axonal outgrowth (in words),[2]; bound to substrate surfaces,reduced to undetectable levels
same,axon outgrowth (in words),"[2]; soluble, nM concentrations",blocked
same,growth cone collapse response (in words),PlexinA1 (PlexA1); listed as GST-hNogo-A (1055-1120),did not respond
same,growth cone collapse response (in words),PlexinA1 (PlexA1); listed as Nogo-66,does not alter Nogo responses
